The numbers were not newly measured in PMC3405059, which cites them from elsewhere.

In the data set the target is MSPβ beta chain (Homo sapiens) (UniProt P26927). Nature of the data set: SPR.

pKd: −log10 of the molar value.

UniProt P26927, sequence (P26927 484-711): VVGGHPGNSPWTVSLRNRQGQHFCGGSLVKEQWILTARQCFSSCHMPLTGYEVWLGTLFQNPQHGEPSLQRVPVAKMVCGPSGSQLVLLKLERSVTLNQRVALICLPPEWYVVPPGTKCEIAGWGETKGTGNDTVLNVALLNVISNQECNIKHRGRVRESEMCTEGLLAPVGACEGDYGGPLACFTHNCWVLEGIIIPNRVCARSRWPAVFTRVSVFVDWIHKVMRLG

As for RON ECD (from UniProt Q04912), the pKd is 7.89.

By pKd is commonly meant the negative decadic logarithm of the Kd, by convention in mol/L.
